The values that follow come from PMC6031460 (Structure (London, England : 1993), 2018).

Data set [1] deals with S. pombe Mis16 (S. pombe) (UniProt O94244). As to the kind of experiment: ITC. For orientation: Isothermal titration calorimetry measures the heat released or taken up as one component is titrated into another.
Data set [2] addresses Mis16-Eic1 heterodimer (S. pombe) (UniProt O94244). The data set can be described thus: AUC.
Data set [3] concerns the target Mis18 C-terminal helical domain (Mis18C) (S. pombe) (UniProt Q9P802). As to the kind of experiment: AUC.
In the next data set the target is T1, S. pombe Mis16 (S. pombe, UniProt O94244 1-430).
T1 sequence (looked up): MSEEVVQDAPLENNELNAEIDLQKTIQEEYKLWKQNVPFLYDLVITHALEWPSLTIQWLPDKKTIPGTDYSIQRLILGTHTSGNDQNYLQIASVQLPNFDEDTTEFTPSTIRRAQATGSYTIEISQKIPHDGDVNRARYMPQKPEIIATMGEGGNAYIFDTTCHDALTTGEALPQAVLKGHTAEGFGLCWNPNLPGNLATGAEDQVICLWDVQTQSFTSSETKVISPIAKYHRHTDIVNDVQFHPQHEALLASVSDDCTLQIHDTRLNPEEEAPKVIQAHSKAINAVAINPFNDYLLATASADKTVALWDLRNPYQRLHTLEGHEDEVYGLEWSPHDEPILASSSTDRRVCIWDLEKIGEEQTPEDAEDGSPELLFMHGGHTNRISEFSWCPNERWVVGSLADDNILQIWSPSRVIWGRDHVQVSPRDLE
As to the kind of experiment: AUC.

Data set [4] concerns the target Mis16-Eic1 heterodimer (S. pombe) (UniProt O94244). As to the kind of experiment: AUC. This is another data set of the same source.
The data set “AUC” deals with the molecule itself. The data set can be described thus: AUC.

One may read the Kd as the constant that tells how readily two partners part at equilibrium. A lower Kd goes with a tighter complex. As to “Trx-Eic1-CT (wild-type) (from UniProt O42995 91-112) (domain or fragment)”, in data set [1], the Kd turned out to be 20.8 nM.
In general, stoichiometry N refers to the number of molecules, sites or subunits per partner or assembly. In data set [2], “Mis18 C-terminal helical domain (Mis18C) (from UniProt Q9P802 1-194) (domain or fragment)” returned a stoichiometry N (Mis18C per Mis16-Eic1 heterodimer) of 2. Moreover, the stoichiometry N in data set [3] turned out to be 2.
“Mis18C fused to maltose binding protein (MBP-Mis18C) (domain or fragment)”: in data set [2], the stoichiometry N (MBP-Mis18C per Mis16-Eic1 heterodimer) turned out to be 2.

B1: S. pombe Eic1 (natural protein, UniProt O42995 1-112, looked up)
chain: MDLMPLEKARAIEIAFDNVFHNTKIPDNLQQFDAILKRLERRRFIPTENQKPRVYETELLVLRFREFGVKDNHNHPINLHSLRSKSLIRAQGKKLDLHNRVFLRRNVRAVKM
As for B1, the “stoichiometry N” value with S. pombe Mis16 came out at 1 Eic1 per Mis16.

B2: S. pombe Mis18 (natural protein, UniProt Q9P802 1-194, looked up)
chain: MSQTETSHSGYIDFKKESQPSVFQCKKCFQIVGDSNAWVISHREYLSFTLSDAVENSVRVEDTFKRSDDGLCVYSELSCTRCNEVIGKVYNSTPIYLDDIRDMYTFSMDKLQAYQLGNKTVNPEGLTRYQVDLEMREDIIKLKSFCLSLYEKFELHDETLRSVKETISSLKKPKIEGKEGKKEKARTYSKRTRK
In turn, B2 gave a stoichiometry N (Mis18 per Mis16-Eic1 heterodimer) in data set [4] of 2. The “stoichiometry N” value in “AUC” was determined as 4.
